Measurements reported in PMC3690454, “14-3-3 Proteins Interact with a Hybrid Prenyl-Phosphorylation Motif to Inhibit G Proteins” (Cell, 2013).
Square brackets hold non-standard residues; d marks the D form. Ends that are not written are not given here. Peptide text beside a SMILES is read from it. * marks the point of attachment. Geranylgeranyl = CC(C)=CCC/C(C)=C/CC/C(C)=C/CC/C(C)=C/C*; Biotin = O=C1N[C@H]2[C@H](CS[C@H]2CCCCC(=O)*)N1; Farnesyl = CC(C)=CCC/C(C)=C/CC/C(C)=C/C*; pT = C[C@@H](OP(=O)(O)O)[C@H](N)C(=O)O; pS = N[C@@H](COP(=O)(O)O)C(=O)O; X1 = CC(C)=CCC/C(C)=C/C*; Ahx = NCCCCCC(=O)O

Legend:
14-3-3ζ [1] = target: T1, 14-3-3ζ (Homo sapiens, UniProt P63104); assay: Isothermal titration calorimetry of Rnd3 C-terminal peptides with 14-3-3ζ; type: binding; details: ITC, 25°C, 50 mM Tris pH 7.5, 100 mM NaCl, 1 mM TCEP, one-site model; mean ± SD, n = 3
T1 construct: hexa-His; made in house; host or cells: E. coli BL21(DE3) Star
T1 sequence (P63104 1-245): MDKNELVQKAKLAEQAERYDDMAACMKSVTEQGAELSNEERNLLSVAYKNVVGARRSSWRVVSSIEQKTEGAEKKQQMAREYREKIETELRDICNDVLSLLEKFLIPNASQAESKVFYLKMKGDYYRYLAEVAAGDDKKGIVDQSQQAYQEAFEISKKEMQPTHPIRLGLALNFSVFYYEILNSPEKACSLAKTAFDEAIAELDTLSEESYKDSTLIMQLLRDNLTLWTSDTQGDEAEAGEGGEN
Procedure: ITC measurements were carried out using a VP-ITC200 instrument (GE Healthcare). The 14-3-3ζ domain (see Extended Experimental Procedures) was used at 50–60 μM in ITC buffer (50 mM Tris [pH 7.5]), 100 mM NaCl, 1 mM TCEP). Rnd3 C-terminal peptides were solubilized in ITC buffer and used at 500–600 μM. Titrations were carried out at 25°C in triplicate. Each titration was fitted to a simple one-site binding model using the Origin software provided with the instrument. Titrations with nonbinding peptides were carried out at 15°C and 25°C.
GST-14-3-3β protein was expressed as previously reported ([Yaffe et al., 1997]). A hexa-His-tagged version of 14-3-3ζ was expressed and purified essentially as previously reported ([Kostelecky et al., 2009]). In brief, the E. coli strain BL21(DE3) Star (Invitrogen) was transformed with the expression plasmid that was maintained by 34 μg/ml chloramphenicol. E. coli cells were grown to OD600nm of 0.7-0.8 in TB medium at 37°C and protein expression induced by 1 mM IPTG for 5 hr at 30°C. Pelleted cells were suspended in buffer A (25 mM Tris [pH 7.5], 100 mM NaCl, 1 mM EDTA, and 1 mM DTT) and disrupted by sonication. Insoluble material was cleared by high-speed centrifugation and the cleared lysate applied to a 5 ml HisTrap column using an AKTA system (GE Healthcare). The 14-3-3ζ protein was eluted with a linear gradient (0–500 mM) of Imidazole in buffer A. Finally, the protein was subjected to size-exclusion chromatography using a High-Load S200 pg column. As previously described, 14-3-3ζ eluted as a dimer with a molecular weight of ∼60 kDa. The final yield of 14-3-3ζ was 30–40 mg per liter of TB medium.

14-3-3ζ [2] = target: T1, 14-3-3ζ; assay: Biolayer interferometry (Octet RED96), immobilised biotinylated peptides, 14-3-3ζ in solution; type: binding; details: for Kd: kinetic fit, peptide immobilised at 1 μg/ml, 25 mM Tris, 150 mM NaCl, 0.1% Tween-20, association 300 s, dissociation 300 s, NB = no binding; for Kd / koff / kon: typical experiment (n ≥ 3)
Procedure: (§1) Biolayer interferometry was carried out using an Octet RED96 instrument (ForteBio). Biotinylated peptides were immobilized on streptavadin-coated biosensors (ForteBio) at a concentration of 1 μg/ml in BI buffer (25 mM Tris, 150 mM NaCl, 0.1% Tween-20), for 300 s. The immobilization typically reached a response level of 2 nm. Association and dissociation curves were obtained through addition of a dilution series of 14-3-3ζ ([…]) for 300 s followed by dissociation in BI buffer for 300 s using the Octet acquisition software. The binding data were fitted using the Octet analysis software.

14-3-3δ = target: T2, 14-3-3δ (Homo sapiens, UniProt P63104); assay: Biolayer interferometry (Octet Red96) of candidate protein C-terminal peptides, Table S5; type: binding
T2 construct: hexa-His; made in house; host or cells: E. coli BL21(DE3) Star
T2 sequence (P63104 1-245): T1 sequence (P63104 1-245)
Procedure: as §1
Table S5. Interactions of C-Terminal Peptides from Candidate Proteins with 14-3-3, […]
The affinities of the indicated phosphorylated and geranylgeranylated peptides for 14-3-3δ were determined by biolayer interferometry using an Octet Red96 instrument. Data of a typical experiment (n ≥ 3) along with statistics of the fit (χ2, R2) are shown. Peptide sequences from the C-terminus of the indicated proteins (last 10 amino acids of the mature protein sequence, terminating with Cys of CAAX box) are shown in single letter amino acid code, with pS/pT denoting phosphorylated serine/threonine. The modifications added to the C-terminal Cys are indicated. GG, geranylgeranylated; KD, dissociation constant; kon, association rate constant; koff, dissocation rate constant.

hexa-His-tagged 14-3-3ζ = target: T3, hexa-His-tagged 14-3-3ζ (UniProt P63104 1-245); assay: BLI; Octet RED96; biotinylated peptides immobilised on streptavidin-coated biosensors (1 μg/ml, 300 s); dilution series of 14-3-3ζ for 300 s, dissociation 300 s; BI buffer 25 mM Tris, 150 mM NaCl, 0.1% Tween-20; data of a typical experiment (n ≥ 3); details: both partners purified
T3 construct: 14-3-3 protein zeta; expressed and purified essentially as in Kostelecky et al., 2009; eluted as a dimer of ~60 kDa; the ITC methods call it 'the 14-3-3ζ domain'; source: E. coli BL21(DE3) Star, purified (HisTrap, size-exclusion chromatography)
T3 sequence: T1 sequence (P63104 1-245)

CC(C)=CCC/C(C)=C/CC/C(C)=C/CSC[C@H](NC(=O)[C@H](COP(=O)(O)O)NC(=O)[C@H](CCCCN)NC(=O)[C@H](C)NC(=O)[C@H](CCCCN)NC(=O)[C@H](CC(=O)O)NC(=O)[C@H](CCCCN)NC(=O)[C@H](CCCNC(=N)N)NC(=O)[C@H](CC(C)C)NC(=O)[C@@H](N)CC(=O)O)C(=O)O [+P+F] (H-DLRKDKAK[pS]C(Farnesyl)-OH)
Kd (14-3-3ζ [1]): 69 ± 25 nM | Kd (14-3-3ζ [2]): 32.4 nM | koff (14-3-3ζ [2]): 0.028 s⁻¹ | kon (14-3-3ζ [2]): 860000 M⁻¹ s⁻¹

CC[C@H](C)[C@H](NC(=O)[C@@H]1CCCN1C(=O)[C@@H](NC(=O)[C@@H]1CCCN1C(=O)CCCCCNC(=O)CCCC[C@@H]1SC[C@@H]2NC(=O)N[C@@H]21)[C@@H](C)O)C(=O)N[C@@H](CCCCN)C(=O)N[C@@H](CCCNC(=N)N)C(=O)NCC(=O)N[C@@H](CCCNC(=N)N)C(=O)N[C@@H](COP(=O)(O)O)C(=O)N[C@@H](CSC/C=C(\C)CC/C=C(\C)CC/C=C(\C)CCC=C(C)C)C(=O)O [RhoG] ({Biotin-Ahx}-PTPIKRGR[pS]C(Geranylgeranyl)-OH)
affinity for 14-3-3 (in words) (14-3-3δ; compared with farnesylated or geranylgeranylated Rnd3 peptides): lower affinity | koff (14-3-3δ; typical experiment (n ≥ 3)): 0.035 s⁻¹

Rap1A+P-GG: phosphorylated Rap1A peptide without the geranylgeranyl modification (EKKKPKKK[pS]C; not fully specified (N-terminus); also: biotinylated)
affinity for 14-3-3ζ (in words) (14-3-3ζ [2]; Figure 7C): micromolar affinity

CC(C)=CCC/C(C)=C/CSC[C@H](NC(=O)[C@H](COP(=O)(O)O)NC(=O)[C@H](CCCCN)NC(=O)[C@H](C)NC(=O)[C@H](CCCCN)NC(=O)[C@H](CC(=O)O)NC(=O)[C@H](CCCCN)NC(=O)[C@H](CCCNC(=N)N)NC(=O)[C@H](CC(C)C)NC(=O)[C@H](CC(=O)O)NC(=O)CCCCCNC(=O)CCCC[C@@H]1SC[C@@H]2NC(=O)N[C@@H]21)C(=O)O [+P+G] ({Biotin-Ahx}-DLRKDKAK[pS]C(X1)-OH)
Kd (14-3-3ζ [2]): 56.5 nM | koff (14-3-3ζ [2]): 0.032 s⁻¹ | kon (14-3-3ζ [2]): 570000 M⁻¹ s⁻¹

{Biotin-Ahx}-GGDDKKSK[pT]C(Geranylgeranyl) (source: synthetic peptide)
Kd (hexa-His-tagged 14-3-3ζ): 44.5 nM | kon (hexa-His-tagged 14-3-3ζ): 410000 M⁻¹ s⁻¹

B1: RPGR C-terminal peptide, phosphorylated and geranylgeranylated (N-Bio-Eahx-TNTERRSKpSC(S-geranylgeranyl)-C) (peptide)
peptide: {Biotin-Ahx}-TNTERRSK[pS]C(Geranylgeranyl)
notes: also called RPRG; source: synthetic peptide
Kd (hexa-His-tagged 14-3-3ζ): 95 nM | koff (hexa-His-tagged 14-3-3ζ): 0.022 s⁻¹ | kon (hexa-His-tagged 14-3-3ζ): 240000 M⁻¹ s⁻¹

{Biotin-Ahx}-PTPIKRGR[pS]C(Geranylgeranyl) (source: synthetic peptide)
Kd (hexa-His-tagged 14-3-3ζ): 868 nM | kon (hexa-His-tagged 14-3-3ζ): 41000 M⁻¹ s⁻¹

{Biotin-Ahx}-PGKARKKS[pS]C(Geranylgeranyl) (source: synthetic peptide)
Kd (hexa-His-tagged 14-3-3ζ): 170 nM | kon (hexa-His-tagged 14-3-3ζ): 320000 M⁻¹ s⁻¹

B2: Rap1A C-terminal peptide, phosphorylated and geranylgeranylated (N-Bio-Eahx-EKKKPKKKpSC(S-geranylgeranyl)-C) (peptide)
peptide: {Biotin-Ahx}-EKKKPKKK[pS]C(Geranylgeranyl)
notes: also called Rap1A+P+GG; source: synthetic peptide
Kd (hexa-His-tagged 14-3-3ζ): 23.6 nM | koff (hexa-His-tagged 14-3-3ζ): 0.034 s⁻¹ | kon (hexa-His-tagged 14-3-3ζ): 1.4e+06 M⁻¹ s⁻¹
